Assay results: patent publication US20230192896A1

Key:
Assay in all cases: not given (FIG. 24A)
FX zymogen = FX zymogen (UniProt P00742)
[1] = molecular target: FIX zymogen (non-activatable FIX) (UniProt P00740)
[2] = molecular target: activated Factor X (FXa) (Homo sapiens (Human)) (UniProt P00742)
[3] = molecular target: free FIXa (activated Factor IX) (human) (UniProt P00740)

activated Factor X (FXa) (Homo sapiens (Human)), sequence (P00742 41-179, chain 1 of 2): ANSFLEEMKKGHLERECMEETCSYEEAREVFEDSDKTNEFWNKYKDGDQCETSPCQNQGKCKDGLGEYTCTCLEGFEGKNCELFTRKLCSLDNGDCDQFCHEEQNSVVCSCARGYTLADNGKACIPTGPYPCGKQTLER
activated Factor X (FXa) (Homo sapiens (Human)), sequence (P00742 235-488, chain 2 of 2): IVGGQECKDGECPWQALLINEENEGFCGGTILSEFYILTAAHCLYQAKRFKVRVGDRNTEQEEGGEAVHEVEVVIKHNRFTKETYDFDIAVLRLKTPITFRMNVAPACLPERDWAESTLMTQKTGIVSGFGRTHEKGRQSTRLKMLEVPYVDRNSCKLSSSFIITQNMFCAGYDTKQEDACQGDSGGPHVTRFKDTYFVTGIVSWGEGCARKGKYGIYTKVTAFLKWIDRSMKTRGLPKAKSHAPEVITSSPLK
FX zymogen, sequence (P00742 41-179, chain 1 of 2): as the sequence (P00742 41-179, chain 1 of 2) above
FX zymogen, sequence (P00742 183-488, chain 2 of 2): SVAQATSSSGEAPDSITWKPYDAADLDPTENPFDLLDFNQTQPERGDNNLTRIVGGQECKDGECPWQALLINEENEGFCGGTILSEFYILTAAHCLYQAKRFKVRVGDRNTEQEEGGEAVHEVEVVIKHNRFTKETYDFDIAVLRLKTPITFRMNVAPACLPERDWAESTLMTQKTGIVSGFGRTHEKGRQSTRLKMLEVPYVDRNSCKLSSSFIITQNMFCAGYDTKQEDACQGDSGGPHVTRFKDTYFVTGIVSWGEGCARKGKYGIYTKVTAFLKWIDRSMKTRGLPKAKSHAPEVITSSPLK

Kd (FX zymogen): 1000 nM
Kd [1]: 1000 nM
Kd [2]: 1000 nM
Kd [3]: 1000 nM
Substance: emicizumab (ACE910) sequence identical bispecific antibody (emicizumab biosimilar)
